Test results reported in patent publication US20200308303A1.

Tests used:
[1] = molecular target: human ADAMTS13 (A Disintegrin And Metalloproteinase with a ThromboSpondin type 1 motif, member 13) (human) (UniProt Q76LX8); experiment: cell-based or functional assay
[2] = molecular target: human ADAMTS13 (A Disintegrin And Metalloproteinase with a ThromboSpondin type 1 motif, member 13) (human) (UniProt Q76LX8); experiment: sandwich ELISA: dilution series of coated antibody (10 to 0.02 µg/mL), constant 15% normal human plasma; half maximal binding by nonlinear regression

Sequence of human ADAMTS13 (A Disintegrin And Metalloproteinase with a ThromboSpondin type 1 motif, member 13) (human) (Q76LX8 75-1427): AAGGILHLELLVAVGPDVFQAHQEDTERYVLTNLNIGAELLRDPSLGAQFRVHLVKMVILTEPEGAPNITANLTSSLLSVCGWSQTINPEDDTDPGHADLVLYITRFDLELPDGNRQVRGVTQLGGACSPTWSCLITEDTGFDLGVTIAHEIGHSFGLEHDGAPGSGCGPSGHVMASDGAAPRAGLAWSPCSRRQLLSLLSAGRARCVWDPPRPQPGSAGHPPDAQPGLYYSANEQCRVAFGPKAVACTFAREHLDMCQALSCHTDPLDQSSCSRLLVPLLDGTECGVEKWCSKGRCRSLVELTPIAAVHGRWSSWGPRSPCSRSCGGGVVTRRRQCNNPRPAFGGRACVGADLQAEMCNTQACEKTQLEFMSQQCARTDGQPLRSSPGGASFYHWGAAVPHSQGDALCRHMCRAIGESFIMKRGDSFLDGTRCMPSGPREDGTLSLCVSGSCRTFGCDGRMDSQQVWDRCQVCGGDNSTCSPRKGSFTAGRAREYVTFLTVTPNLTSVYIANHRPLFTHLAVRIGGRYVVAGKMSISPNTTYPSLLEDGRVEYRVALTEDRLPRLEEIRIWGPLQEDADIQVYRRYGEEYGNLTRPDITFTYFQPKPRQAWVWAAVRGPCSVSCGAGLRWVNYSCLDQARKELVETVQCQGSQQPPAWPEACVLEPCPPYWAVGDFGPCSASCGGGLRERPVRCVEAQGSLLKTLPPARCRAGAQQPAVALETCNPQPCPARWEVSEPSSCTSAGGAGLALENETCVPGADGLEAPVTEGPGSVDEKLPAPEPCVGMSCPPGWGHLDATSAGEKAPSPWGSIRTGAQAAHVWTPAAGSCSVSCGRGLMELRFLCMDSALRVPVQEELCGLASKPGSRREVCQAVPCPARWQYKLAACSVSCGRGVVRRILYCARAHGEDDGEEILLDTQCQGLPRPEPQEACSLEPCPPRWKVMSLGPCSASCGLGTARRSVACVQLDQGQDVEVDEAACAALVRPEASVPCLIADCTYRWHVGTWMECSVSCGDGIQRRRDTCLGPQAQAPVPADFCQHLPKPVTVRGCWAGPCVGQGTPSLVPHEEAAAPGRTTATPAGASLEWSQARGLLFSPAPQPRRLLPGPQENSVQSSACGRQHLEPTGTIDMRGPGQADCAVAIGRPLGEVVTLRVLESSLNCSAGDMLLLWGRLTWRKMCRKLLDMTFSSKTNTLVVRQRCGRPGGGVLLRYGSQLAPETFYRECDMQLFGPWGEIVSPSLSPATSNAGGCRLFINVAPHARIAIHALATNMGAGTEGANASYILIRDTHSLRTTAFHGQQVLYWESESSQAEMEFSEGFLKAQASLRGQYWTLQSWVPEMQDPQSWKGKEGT

half maximal inhibitory concentration (IC50) of ADAMTS13 activity in normal human plasma, FRETS-VWF73 assay [1]: 0.47 µg/mL
half-maximal binding concentration (EC50) of coated antibody [2]: 0.51 µg/mL
B1: monoclonal anti-ADAMTS13 antibody 17C7 (antibody, V domains shown)
VH: EVQLVESGGDLVKSGGSLKLSCAASGFIFSNYAMSWVRQTPEKRLEWGATITTGGFYTFYSDSVKGRFTISRDNAKNTLYLQMSSLRSEDTAMYYCARHRYDDYYALDYWGQGTSVTVSS
VL: ENVLTQSPAIMSTSPGEKVTMTCNVSSSVSYMRWFQQKSSTSPKLWIYDTSKLASGVPGRFSGSGSGHSYSLTISSMEADDVATYYCFQGNGYPLTFGAGTKLELK
modifications: Biotinylated when used as detector; the site is not stated and the letters cannot carry it.
